Assay results taken from paper PMC7545998, “A snake toxin as a theranostic agent for the type 2 vasopressin receptor” (Theranostics, 2020).
Where two headings read alike, the source gives them in different places.

T1: Type 2 vasopressin receptor (V2R) (Rattus norvegicus, UniProt Q00788)
T1 chain: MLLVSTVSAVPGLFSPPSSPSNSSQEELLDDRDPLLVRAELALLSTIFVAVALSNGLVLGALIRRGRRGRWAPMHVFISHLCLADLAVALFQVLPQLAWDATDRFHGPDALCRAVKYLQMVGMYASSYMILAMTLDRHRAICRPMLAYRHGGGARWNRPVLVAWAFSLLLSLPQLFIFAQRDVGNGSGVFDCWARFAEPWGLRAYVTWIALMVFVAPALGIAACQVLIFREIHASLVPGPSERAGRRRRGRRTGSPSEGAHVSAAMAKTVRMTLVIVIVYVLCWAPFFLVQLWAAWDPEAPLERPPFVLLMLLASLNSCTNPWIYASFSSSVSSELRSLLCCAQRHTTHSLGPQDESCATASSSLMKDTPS


Columns and labels:
[1] = in rats; cited from earlier work
Description: The intrinsic qualities needed to develop a good in vivo contrast agent are high molecular selectivity so as to label only the selected target, a high affinity, so that a low dose of the tracer can be injected, quick blood elimination to reduce background noise and long-term residence in the targeted organ. […] As a peptide, MQ1 is simple to engineer. […] We exemplified this statement by generating the first PET agent specific to V2R and two highly efficient spe ...

[2] = tested on: porcine kidney epithelial cells LLC-pk1; test: Confocal imaging of endogenous V2R in LLC-pk1 cells; format: cell-based; settings: 1 µM, 30-min pre-incubation
Protocol: In cells endogenously expressing V2R, such as porcine kidney epithelial cells LLC-pk1, labeling of V2R with AFDye-488-MQ1 and Cy5.5-MQ1 (100 nM) was performed with either fresh or PFA-fixed cells (Figures 7A and B). […] In the pathophysiological context, three renal cancer cell lines (CAKI-2, ACHN and A498 [38]) known to express V2R were tested. […] The presence of V2R, at the cell membrane level, fluctuated as a function of cell density and the number of cell divisions, whatever the cell line used. […] To our knowledge, this is the first specific ligand labeling of V2R in non-permeabilized cancer cells.
Freshly dissociated CHO, LLC-PK1 or renal cancer cell lines expressing vasopressin receptors were seeded on 12-mm glass coverslips pre-coated with poly-ornithine, cultured for 48 h before incubation in DMEM, 0.2 mg/mL BSA, 25 mM HEPES, pH 7.4 for 1 h at 12°C or 30 min at 22 °C with fluorescent analogues in the absence or presence of non-fluorescent ligands (30-min pre-incubation). After 3 washes with cold PBS, the cells were finally fixed in 4% PFA overnight at 4 °C and mounted with Mowiol. The fluorescent cells were imaged using a Zeiss LSM510 Meta confocal microscope equipped with a ×63 (NA 1.4) oil immersion objective. For excitation, available laser rays were 488 and 633 nm and emission signals were collected in multitracking mode with appropriate band pass filters. […]

[3] = cited from earlier work
Protocol: Aprotinin and bikunin are two Kunitz peptides. Aprotinin is used clinically in acute pancreatitis, shock syndromes and hyperfibrinolytic hemorrhage. Bikunin is a protease Kunitz inhibitor that inhibits the invasiveness of tumor cells of various histological origins. Aprotinin [54] and bikunin [55] have similar T1/2α of 0.7 and 0.85 h and T1/2β of 7 and 6.4 h, respectively.

[4] = molecular target: T1, Type 2 vasopressin receptor (V2R); test: [3H]AVP competition radioligand binding

| Molecule | T1/2α [3] [min] | T1/2β [3] [h] | further results |
| --- | --- | --- | --- |
| NC(=O)CC[C@@H]1NC(=O)[C@H](Cc2ccccc2)NC(=O)[C@H](Cc2ccc(O)cc2)NC(=O)[C@@H](N)CSSC[C@@H](C(=O)N2CCC[C@H]2C(=O)N[C@@H](CCCN=C(N)N)C(=O)NCC(N)=O)NC(=O)[C@H](CC(N)=O)NC1=O [AVP, arginine-vasopressin] |  |  | T1/2α [1]: 0.9 min; T1/2β [1]: 8 min |
| CCOc1ccc2c(c1)C1(CCC(OCCN3CCOCC3)CC1)C(=O)N2S(=O)(=O)c1ccc(C(=O)NC(C)(C)C)cc1OC (centres unmarked) [SR121463, reference compound] |  |  | effect on labeling by AFDye-488-MQ1 and Cy5.5-MQ1 [2]: inhibited the labeling |
| Aprotinin [reference compound] | 42 | 7 |  |
| Mambaquaretin (MQ1) (protein) RPSFCNLPVKPGPCNGFFSAFYYSQKTNKCHSFTYGGCKGNANRFSTIEKCRRTCVG |  |  | Ki [4]: 7.7 nM |
| bikunin: protease Kunitz inhibitor that inhibits the invasiveness of tumor cells (protein, UniProt P02760 206-352, looked up, Inter-alpha-trypsin inhibitor light chain) Inter-alpha-trypsin inhibitor …: AVLPQEEEGSGGGQLVTEVTKKEDSCQLGYSAGPCMGMTSRYFYNGTSMACETFQYGGCMGNGNNFVTEKECLQTCRTVAACNLPIVRGPCRAFIQLWAFDAVKGKCVLFPYGGCQGNGNKFYSEKECREYCGVPGDGDEELLRFSN | 51 | 6.4 |  |
